Substrate in data set [1]: C[C@H]1[C@H](NC(=O)/C(=N\OC(C)(C)C(=O)O)c2csc(N)n2)C(=O)N1S(=O)(=O)O
The data set can be described thus: (§1) Activity of Klebsiella pneumoniae Beta-Lactamase SHV-1.

Substrate in data set [2]: CC1(C)S[C@@H]2[C@H](NC(=O)Cc3ccccc3)C(=O)N2[C@H]1C(=O)O
The data set is described as §1.

Substrate in data set [3]: CO/N=C(\C(=O)N[C@@H]1C(=O)N2C(C(=O)O)=C(COC(N)=O)CS[C@H]12)c1ccco1
Described as §1.

Substrate in data set [4]: CC1(C)S[C@@H]2[C@H](NC(=O)[C@H](C(=O)O)c3ccsc3)C(=O)N2[C@H]1C(=O)O
The description is as §1.

Substrate in data set [5]: CO/N=C(\C(=O)N[C@@H]1C(=O)N2C(C(=O)[O-])=C(C[N+]3(C)CCCC3)CS[C@H]12)c1csc(N)n1
Described as §1.

Substrate in data set [6]: CCN1CCN(C(=O)N[C@@H](C(=O)N[C@@H]2C(=O)N3[C@@H]2SC(C)(C)[C@@H]3C(=O)O)c2ccccc2)C(=O)C1=O
The experiment in a line: (§2) Ratio of Kcat to Km for Klebsiella pneumoniae Beta-Lactamase SHV-55.

Substrate in data set [7]: CC1(C)S[C@@H]2[C@H](NC(=O)Cc3ccccc3)C(=O)N2[C@H]1C(=O)O
The description is as §2.

Substrate in data set [8]: CO/N=C(\C(=O)N[C@@H]1C(=O)N2C(C(=O)O)=C(COC(N)=O)CS[C@H]12)c1ccco1
Described as §2.

Substrate in data set [9]: CC1(C)S[C@@H]2[C@H](NC(=O)[C@H](C(=O)O)c3ccsc3)C(=O)N2[C@H]1C(=O)O
The data set is described as §2.

Substrate in data set [10]: CO/N=C(\C(=O)N[C@@H]1C(=O)N2C(C(=O)[O-])=C(C[N+]3(C)CCCC3)CS[C@H]12)c1csc(N)n1
Described as §2.

Substrate in data set [11]: C[C@H]1[C@H](NC(=O)/C(=N\OC(C)(C)C(=O)O)c2csc(N)n2)C(=O)N1S(=O)(=O)O
The experiment in a line: (§3) Activity of Klebsiella pneumoniae Beta-Lactamase SHV-55.

Substrate in data set [12]: CCN1CCN(C(=O)N[C@@H](C(=O)N[C@@H]2C(=O)N3[C@@H]2SC(C)(C)[C@@H]3C(=O)O)c2ccccc2)C(=O)C1=O
The data set is described as §3.

Substrate in data set [13]: CC1(C)S[C@@H]2[C@H](NC(=O)Cc3ccccc3)C(=O)N2[C@H]1C(=O)O
The data set is described as §3.

Substrate in data set [14]: CO/N=C(\C(=O)N[C@@H]1C(=O)N2C(C(=O)O)=C(COC(N)=O)CS[C@H]12)c1ccco1
The description is as §3.

Substrate in data set [15]: CC1(C)S[C@@H]2[C@H](NC(=O)[C@H](C(=O)O)c3ccsc3)C(=O)N2[C@H]1C(=O)O
The data set is described as §3.

Substrate in data set [16]: CO/N=C(\C(=O)N[C@@H]1C(=O)N2C(C(=O)[O-])=C(C[N+]3(C)CCCC3)CS[C@H]12)c1csc(N)n1
The data set is described as §3.

A value given as a limit tells only on which side of the number the result lay.

B1: Beta-lactamase SHV-1 (Klebsiella pneumoniae), P0AD64 (protein)
chain: MRYIRLCIISLLATLPLAVHASPQPLEQIKLSESQLSGRVGMIEMDLASGRTLTAWRADERFPMMSTFKVVLCGAVLARVDAGDEQLERKIHYRQQDLVDYSPVSEKHLADGMTVGELCAAAITMSDNSAANLLLATVGGPAGLTAFLRQIGDNVTRLDRWETELNEALPGDARDTTTPASMAATLRKLLTSQRLSARSQRQLLQWMVDDRVAGPLIRSVLPAGWFIADKTGAGERGARGIVALLGPNNKAERIVVIYLRDTPASMAERNQQIAGIGAALIEHWQR
Consider B1, for which the kcat in data set [1] is below 0.1 s⁻¹; in [3], below 0.1 s⁻¹; in data set [4], 220 s⁻¹; in data set [5], below 0.1 s⁻¹. For the same protein, the Km in [2] was determined as 23 µM; in data set [3], 80 µM; in [5] it was 149 µM.

B2: Beta-lactamase SHV-55 (Klebsiella pneumoniae), Q4TVR4 (protein)
chain: MRFIRLCIISLLATLPLAVHASPQPLEQIKLSESQLSGRVGMIEMDLASGRTLTAWRADERFPMMSTFKVVLCGAVLARVDAGDEQLERKIHYRQQDLVDYSPVSEKHLADGMTVGELCAAAITMSDNSAANLLLATVGGPAGLTAFLRQIGDNVTRLDRWETELNEALPGDARDTTTPASMAATLRKLLTSQRLSARSQRQLLQWMVDDRVAGPLIRSVLPAGWFIADKTGASKRGARGIVALLGPNNKAERIVVIYLRDTPASMAERNQQIAGIGAALIEHWQR
For B2, the kcat/Km in data set [6] came out at 3.7e+06 M⁻¹ s⁻¹; in data set [7] it was 5.3e+06 M⁻¹ s⁻¹; in data set [8] it was 300000 M⁻¹ s⁻¹; in data set [9], 1.5e+06 M⁻¹ s⁻¹; in data set [10], 200000 M⁻¹ s⁻¹. Also, the Km in [11] is 5 µM; in data set [12] it was 8 µM; in data set [13], 5 µM; in data set [15], 6 µM; in data set [16], 149 µM. The kcat is below 0.1 s⁻¹ in [11]; 27 s⁻¹ in [12]; 7 s⁻¹ in [14]; 8 s⁻¹ in data set [15]; 30 s⁻¹ in data set [16].

Usually kcat stands for the maximal rate divided by the concentration of active sites. For orientation: Km means the substrate concentration at which the rate is half of its maximum. For orientation: kcat/Km means the second-order rate constant that governs catalysis at low substrate concentration.

The values above are taken from ChEMBL document CHEMBL1255339, “Biochemical characterization of SHV-55, an extended-spectrum class A beta-lactamase from Klebsiella pneumoniae” (Antimicrob Agents Chemother, 2008).
